Assay results as given in US20260365743 (published 2026).
Changes are numbered by the printed parent chain.

T1: hNPR3 (human, UniProt P17342)
T1 chain: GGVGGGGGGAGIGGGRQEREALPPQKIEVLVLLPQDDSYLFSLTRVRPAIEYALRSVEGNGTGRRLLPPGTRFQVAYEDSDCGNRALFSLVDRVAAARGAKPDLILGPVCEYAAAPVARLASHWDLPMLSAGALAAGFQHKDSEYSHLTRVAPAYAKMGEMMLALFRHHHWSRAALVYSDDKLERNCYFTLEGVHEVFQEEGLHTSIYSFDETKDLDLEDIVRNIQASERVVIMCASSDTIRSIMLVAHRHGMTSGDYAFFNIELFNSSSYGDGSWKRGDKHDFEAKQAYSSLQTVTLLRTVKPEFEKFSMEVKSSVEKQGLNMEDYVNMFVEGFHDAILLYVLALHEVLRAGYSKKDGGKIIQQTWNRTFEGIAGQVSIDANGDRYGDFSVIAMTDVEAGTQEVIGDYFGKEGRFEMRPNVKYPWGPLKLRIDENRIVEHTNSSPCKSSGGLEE

T2: hNPR2 (human, UniProt P20594)
T2 chain: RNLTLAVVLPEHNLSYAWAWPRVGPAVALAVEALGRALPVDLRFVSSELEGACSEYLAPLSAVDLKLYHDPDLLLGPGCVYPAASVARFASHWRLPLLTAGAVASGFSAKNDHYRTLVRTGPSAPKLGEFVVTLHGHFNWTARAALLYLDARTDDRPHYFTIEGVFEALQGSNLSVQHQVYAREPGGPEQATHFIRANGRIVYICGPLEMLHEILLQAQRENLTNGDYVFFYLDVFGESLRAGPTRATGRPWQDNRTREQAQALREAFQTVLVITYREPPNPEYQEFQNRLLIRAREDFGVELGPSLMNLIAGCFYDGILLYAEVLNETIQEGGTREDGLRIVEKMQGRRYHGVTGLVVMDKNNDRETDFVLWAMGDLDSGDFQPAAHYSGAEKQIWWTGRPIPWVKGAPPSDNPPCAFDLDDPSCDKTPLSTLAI

B1: RC25 V (antibody, V domains shown)
VH: QVQLVQSGAEVKKPGASVKVSCKASGYTFTNSWIGWFRQAPGQGLEWIGDIYPGGGYTNYNEIFKGKATMTADTSTNTAYMELSSLRSEDTAVYYCSRGIPGYAMDYWGQGTLVTVSS
VL: DIQMTQSPSSLSASVGDRVTMSCKSSQSLLNSGDQKNYLTWYQQKPGKAPKLLIYWASTGESGVPSRFSGSGSGTDFTFTISSLQPEDIATYYCQNDYSYPWTFGQGTKVEIKR
B2: Hu128H3L1-6 (antibody, V domains shown)
VH: EVQLVQSGAEVKKPGASVKVSCKASGYTFTSYWMHWVRQAPGQGLEWMGRIDPNSGVTKYNEKFKSRVTLTVDKPSSPAYMELSSLRSEDTAVYYCARSSYLGRYFDVWGQGTTVTVSS
VL: EIVLTQSPATLSLSPGERATLKCSATSSVSYMYWYQQKPGQAPRLLIYDTYNLGSRIPARFSGSGSGTDYTLTISRLEPEDFAVYYCQQWSSYPPTFGQGTKLEIK
B3: Hu140H5L5-11 (antibody, V domains shown)
VH: B2 VH with E1Q, S100G, Y101G, G103R
VL: B2 VL with T20Q, K22S, T26S, G54A, R56G, I57V, A59D, D69S, Q99A
B4: Hu135H3L1 (antibody, V domains shown)
VH: DVKLVESGEGLVKPGGSLRLSCAASGFSISTYGMSWVRQAPGKRLEWVAYINSGGNYIYYADSVKGRFTISRDNAKNSLYLQMNSLRAEDTAVYYCTRDRTTIVVHWYFDVWGQGTTVTVSS
VL: DIQLTQSPSSLSASVGDRVTITCSASSSLNFMHWYQQKPGKSPKRWIYDTSKLASGVPSRFSGSGSGTDYTLTISSLQPEDFATYYCHQRSSTFGGGTKVEIK
B5: Hu102H4L6 (antibody, V domains shown)
VH: B4 VH with S28T, I29F, T31S, G33A, N52S, S53R, N56D, T91S, R100Q, I103V
VL: DIQLTQSPSSLSASVGDRVTITCSASSSINYMHWYQQKPGKSPKRWIYDTSKLASGVPSRFSGSGSGTDYTLTISSLQPEDFATYYCHQRNSYTFGGGTKVEIK

Molecular target: T1, hNPR3
Experiment: ELISA

Binding result, no binding:
B1
B2
B3
B4
B5

Molecular target: hNPR1 antigen (human)
Sequence (chain, as listed by the source): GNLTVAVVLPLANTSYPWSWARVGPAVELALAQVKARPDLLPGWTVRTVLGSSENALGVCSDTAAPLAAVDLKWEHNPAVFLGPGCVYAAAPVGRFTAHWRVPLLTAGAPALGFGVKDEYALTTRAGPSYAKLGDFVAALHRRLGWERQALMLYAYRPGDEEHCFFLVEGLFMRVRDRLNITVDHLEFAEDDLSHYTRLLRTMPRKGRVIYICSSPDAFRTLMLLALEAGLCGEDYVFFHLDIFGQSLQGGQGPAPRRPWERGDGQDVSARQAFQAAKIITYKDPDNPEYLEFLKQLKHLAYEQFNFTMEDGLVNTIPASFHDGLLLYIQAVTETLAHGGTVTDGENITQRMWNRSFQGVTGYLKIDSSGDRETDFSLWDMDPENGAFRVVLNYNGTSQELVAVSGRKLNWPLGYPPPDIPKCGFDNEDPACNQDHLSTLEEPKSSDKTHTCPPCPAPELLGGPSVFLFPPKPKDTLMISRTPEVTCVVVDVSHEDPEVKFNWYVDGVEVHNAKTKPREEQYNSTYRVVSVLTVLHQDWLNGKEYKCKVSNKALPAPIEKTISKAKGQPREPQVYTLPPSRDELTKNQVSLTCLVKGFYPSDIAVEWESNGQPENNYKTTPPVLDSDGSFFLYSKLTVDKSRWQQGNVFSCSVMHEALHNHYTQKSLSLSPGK
Experiment: ELISA

Binding result, no binding:
B1

Molecular target: T2, hNPR2
Experiment: ELISA

Binding result, no binding:
B1
B2
B3
B4
B5
